Literature values in PMC8895726.

Molecular target: LAG-3:Fc (Mus musculus) (UniProt Q61790)
Assay: BLI

Sequence of UniProt Q61790 (Q61790 24-442): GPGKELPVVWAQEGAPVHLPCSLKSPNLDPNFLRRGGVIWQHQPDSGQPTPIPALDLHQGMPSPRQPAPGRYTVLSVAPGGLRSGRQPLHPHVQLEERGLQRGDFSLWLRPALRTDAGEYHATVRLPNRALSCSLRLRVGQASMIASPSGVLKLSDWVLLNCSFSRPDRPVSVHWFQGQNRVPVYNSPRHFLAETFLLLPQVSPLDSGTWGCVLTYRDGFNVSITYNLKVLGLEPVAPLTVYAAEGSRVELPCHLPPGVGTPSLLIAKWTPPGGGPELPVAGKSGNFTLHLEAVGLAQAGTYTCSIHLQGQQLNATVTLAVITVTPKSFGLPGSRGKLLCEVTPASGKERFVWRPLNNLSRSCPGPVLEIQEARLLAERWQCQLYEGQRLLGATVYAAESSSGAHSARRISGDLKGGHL

Kd: 1.5 nM
Substance: FGL1 (from UniProt Q71KU9)
